Experiments:
[1] = target: NCP-3′linker (nucleosome core particle with H3K9me3 and a single hemimethylated CpG site in the 3′-linker DNA) (human) (UniProt P04908); test: mass photometry; UHRF1 and NCP mixed at a UHRF1–NCP ratio of 1:4, on ice 30 min; final 25 nM in 20 mM Tris–HCl pH 7.0, 150 mM NaCl
[2] = target: NCP-5′linker (nucleosome core particle with H3K9me3 and a single hemimethylated CpG site in the 5′-linker DNA) (human) (UniProt P04908); test: as above
[3] = target: NCP-601 (nucleosome core particle with H3K9me3 and a single hemimethylated CpG site within the 3′-Widom 601 sequence) (human) (UniProt P04908); test: as above
[4] = target: NCP-3′linker (nucleosome core particle with H3K9me3 and a single hemimethylated CpG site in the 3′-linker DNA) (human) (UniProt P04908); test: thermal stability assay (SYPRO Orange); 0.2 mg/ml protein; 20 mM Tris–HCl pH 7.5, 150 mM NaCl, 1 mM DTT; heated from 25 °C to 90 °C
[5] = target: NCP-5′linker (nucleosome core particle with H3K9me3 and a single hemimethylated CpG site in the 5′-linker DNA) (human) (UniProt P04908); test: as above
[6] = target: NCP-601 (nucleosome core particle with H3K9me3 and a single hemimethylated CpG site within the 3′-Widom 601 sequence) (human) (UniProt P04908); test: as above

UHRF1 (ubiquitin-like with plant homeodomain and RING finger domain 1), full-length human, WT (from UniProt Q96T88 1-793) (enzyme)
stoichiometry N [1]: 1 | stoichiometry N [2]: 1 | stoichiometry N [3]: 1 | Tm (denaturation temperature of UHRF1 bound to the NCP) [4]: 44.8 °C | Tm (denaturation temperature of UHRF1 bound to the NCP) [5]: 44.2 °C | Tm (denaturation temperature of UHRF1 bound to the NCP) [6]: 42.8 °C
